In patent US20110262454A1 (published 2011):
Where a chain is given by its changes, count along the chain named.

B1: ch38SB39 chimeric anti-CD38 antibody (antibody, V domains shown)
VH: NVQLVESGGGLVQPGGSRKLSCAASGFTFSNFGMHWVRQAPEKGLEWVAYIRSGSGTIYYSDTVKGRFTISRDNPKNTLFLQMTSLRSEDTAMYYCARSYYDFGAWFAYWGQGTLVTVSA
VL: DIVMTQSQKFMSTSVGDRVSVTCKASQNVGTNVAWYQHKPGQSPKIMIYSASSRYSGVPDRFTGSGSGTLFTLTINNVQSEDLAEYFCQQYNSYPLTFGSGTKLEIKR
B2: 38SB39 murine anti-CD38 monoclonal antibody (antibody, V domains shown)
VH: B1 VH
VL: B1 VL
notes: Murine hybridoma antibody; also called hybridoma PTA-7671
B3: ch38SB13 chimeric anti-CD38 antibody (antibody, V domains shown)
VH: QIQLVQSGPELKKPGETVKISCKASGYTLTSYGMNWVKQAPGKGLKWMGWINTYTGEPTYADDFKGRFAFSLETSASTAFLQINNLKNEDTATYFCVRRGFAYWGQGTLVTVSA
VL: NIVLTQSPASLAVSLGQRATISCRASESVEIYGNGFMNWFQQKPGQPPKLLIYRASNLESGIPARFSGSGSRTEFTLTIDPVEADDVATYYCQQINEDPFTFGSGTKLEIKR
B4: 38SB13 murine anti-CD38 monoclonal antibody (antibody, V domains shown)
VH: B3 VH
VL: B3 VL
notes: Murine hybridoma antibody purified by Protein A or G; also called hybridoma PTA-7667
B5: ch38SB18 chimeric anti-CD38 antibody (antibody, V domains shown)
VH: B3 VH with L29F, S31N, Y32S, T78S, F80Y, N84S, V97A, A102V
VL: B3 VL with N1D, E30A, G35S, M37L, N38K, R72G, E74D, D80N, F100Y, S104G
B6: 38SB18 murine anti-CD38 monoclonal antibody (antibody, V domains shown)
VH: B3 VH with L29F, S31N, Y32S, T78S, F80Y, N84S, V97A, A102V
VL: B3 VL with N1D, E30A, G35S, M37L, N38K, R72G, E74D, D80N, F100Y, S104G
notes: Murine hybridoma antibody; also called hybridoma PTA-7669
B7: ch38SB31 chimeric anti-CD38 antibody (antibody, V domains shown)
VH: DVKLVESGGGLVKPGGSLKLSCEASGFTFSSYTLSWVRQTPETRLEWVATISIGGRYTYYPDSVEGRFTISRDNAKNTLYLQMNSLKSEDTAMYYCTRDFNGYSDFWGQGTTLTVSS
VL: DTVMTQSHKFISTSVGDRVSITCKASQVVGSAVAWYQQKPGQSPKLLIYWASTRHTGVPDRFTGSGSGTDFTLTISNVQSEDLADYFCQQYNSYPYTFGGGTKLEIKR
notes: also called chimeric 38SB31
B8: hu38SB31 v1.1 humanized anti-CD38 antibody (antibody, V domains shown)
VH: B7 VH with D1E, K3Q, K19R, E42G, T43K, R44G, E65K
VL: B7 VL with H8P, K9S, F10T, E81D
B9: hu38SB31 v1.2 humanized anti-CD38 antibody (antibody, V domains shown)
VH: B7 VH with D1E, K3Q, K19R, E42G, T43K, R44G, E65K
VL: B7 VL with H8P, K9S, F10S, V15I, D60A
B10: 38SB31 murine anti-CD38 monoclonal antibody (antibody, V domains shown)
VH: B7 VH
VL: B7 VL
notes: Murine hybridoma antibody; also called hybridoma PTA-7668
B11: ch38SB19 chimeric anti-CD38 antibody (antibody, V domains shown)
VH: QVQLQQSGAELARPGTSVKLSCKASGYTFTDYWMQWVKQRPGQGLEWIGTIYPGDGDTGYAQKFKGKATLTADKSSKTVYMHLSSLASEDSAVYYCARGDYYGSNSLDYWGQGTSVTVSS
VL: DIVMAQSHKFMSTSVGDRVSITCKASQDVSTVVAWYQQKPGQSPKRLIYSASYRYIGVPDRFTGSGSGTDFTFTISSVQAEDLAVYYCQQHYSPPYTFGGGTKLEIKR
notes: also called chimeric 38SB19
B12: 38SB19 murine anti-CD38 monoclonal antibody (antibody, V domains shown)
VH: B11 VH
VL: B11 VL
notes: also called mu38SB19; murine 38SB19
B13: ch38SB30 chimeric anti-CD38 antibody (antibody, V domains shown)
VH: QVQLQQSGPELVRPGASVKISCKTSGYAFSGSWMNWVKQRPGQGLEWIGRIYPGDGDIIYNGNFRDKVTLSADKSSNTAYMQLSSLTSVDSAVYFCSRWGTFTPSFDYWGQGTTLTVSS
VL: DIVMTQSHKFLSTSVGDRVSITCKASQDVVTAVAWFQQKPGQSPKLLIYSASHRYTGVPDRFTGSGSGTDFTFTIISVQAEDLAVYYCQQHYTTPTTFGGGTKLDFRR
B14: 38SB30 murine anti-CD38 monoclonal antibody (antibody, V domains shown)
VH: B13 VH
VL: B13 VL
notes: Murine hybridoma antibody; also called hybridoma PTA-7666

Tests used:
human CD38 on cells [1] = biological target: T1, human CD38 on cells (human, UniProt P28907 1-300); assay: cell-based or functional assay
human CD38 on cells [2] = biological target: T1, human CD38 on cells; assay: apparent KD, FACS titration on Ramos cells, non-linear regression
human CD38 on cells [3] = biological target: T1, human CD38 on cells; assay: FACS binding on Ramos cells
human CD38 on cells [4] = biological target: T1, human CD38 on cells; assay: FACS binding titration on Ramos cells

Binder | ADCC EC50, Ramos target cells, human NK effector cells, LDH release (human CD38 on cells [1]) | CDC EC50, Raji-IMG cells, human complement 5% (human CD38 on cells [1]) | CDC, specific viability of Daudi cells at 1.25 µg/mL or higher with complement (human CD38 on cells [1]) | apoptosis, Annexin V-positive Daudi cells after 24 h with 10 nM antibody (human CD38 on cells [1]) | apoptosis, Annexin V-positive MOLP-8 cells (human CD38 on cells [1]) | apoptosis, Annexin V-positive Ramos cells after subtraction of the non-treated control (human CD38 on cells [1]) | Kd (human CD38 on cells [2]) | also measured
B1 | 113 ng/mL | 400 ng/mL | 91% | – | – | – | – | –
B2 | – | – | – | > 30% | ~50% | ≥ 7% | 3.03 nM | –
B3 | 1.3 ng/mL | 5 ng/mL | 65% | – | – | – | – | –
B4 | – | – | – | > 30% | ~50% | ≥ 7% | 0.1 nM | –
B5 | 1.3 ng/mL | 10.1 ng/mL | 85% | – | – | – | – | ADCC EC50, LP-1 multiple myeloma cells (human CD38 on cells [1]): 0.56 ng/mL; CDC EC50, LP-1 multiple myeloma cells (human CD38 on cells [1]): 32 ng/mL
B6 | – | – | – | > 30% | ~50% | ≥ 7% | 0.1 nM | –
B7 | 1.2 ng/mL | 10 ng/mL | 53% | – | – | – | – | ADCC EC50, LP-1 multiple myeloma cells (human CD38 on cells [1]): 0.24 ng/mL; CDC EC50, LP-1 multiple myeloma cells (human CD38 on cells [1]): 43 ng/mL; Kd (human CD38 on cells [3]): 0.12 nM
B8 | – | – | – | – | – | – | – | Kd (human CD38 on cells [3]): 0.13 nM
B9 | – | – | – | – | – | – | – | Kd (human CD38 on cells [3]): 0.11 nM
B10 | – | – | – | > 30% | ~50% | ≥ 7% | 0.11 nM | –
B11 | 1.8 ng/mL | 28 ng/mL | – | – | – | – | – | Kd (human CD38 on cells [4]): 0.18 nM; ADCC EC50, LP-1 multiple myeloma cells (human CD38 on cells [1]): 0.34 ng/mL; CDC EC50, LP-1 multiple myeloma cells (human CD38 on cells [1]): 30 ng/mL
B12 | – | – | – | > 30% | ~50% | ≥ 7% | 0.12 nM | –
B13 | 2.2 ng/mL | 20 ng/mL | 45% | – | – | – | – | –
B14 | – | – | – | > 30% | ~50% | ≥ 7% | 0.16 nM | –
